According to US10501552B2, “Multivalent molecules comprising DR5-binding domains” (MacroGenics, Inc., priority 2015, dated 2019):

What was measured:
COLO205 [1] = experiment: […]-GLO cell viability assay with vorinostat; type: cell-based; settings: for synergy with vorinostat: 0.1 or 1 μM vorinostat; for Average % Ctrl: one day
Protocol: For the first study COLO205 cells were plated at 2×10^4 cells/well (in 96-well plates), and incubated overnight in F12/DMEM media supplemented with 10% FBS. […] Cell viability was determined using Promega […]-GLO® Luminescent Cell Viability Assay (Cat # G5430) essentially as described in the manufacturer's instructions to assay the amount of ATP present, which is a measure of the number of viable cells in the culture. Briefly, an […]-GLO® Reagent was added to the wells and mixed for two minutes to induce lysis and the luminescence was read in a in PerkinElmer EnVision multilabel plate reader.
Cell viability of cells treated with the test articles is normalized to the corresponding negative control (medium±vorinostat) which is set to 100% and reported in Table 12 as % of control for each test agent alone or % control for each test agent in combination with vorinostat. % of control values less than 100% indicate a reduction in viability and reflect the cytotoxicity of the test article alone or in combination with vorinostat.
The Net Gain (Average % Growth Inhibition)=% Medium Ctrl (10% FBS)−% Medium Ctrl (1/10 μM vorinostat), and represents increased cytotoxicity of the test article in combination with vorinostat over cells treated with vorinostat alone.

SKBR3 = experiment: […]-GLO cell viability assay with vorinostat; type: cell-based, human; settings: SKBR3 (Breast); 1 μg/ml + 1 μM Vorinostat
Hs700T = experiment: […]-GLO cell viability assay with vorinostat; type: cell-based; settings: Hs700T (Pancreas); 1 μg/ml + 1 μM Vorinostat
22RV1 = experiment: […]-GLO cell viability assay with vorinostat; type: cell-based; settings: 22RV1 (Prostate); 1 μg/ml + 10 μM Vorinostat
COLO205 [2] = experiment: MTS cell proliferation assay; type: cell-based; settings: COLO205 (Colon); 1 μg/ml, ±10 μg/ml αmFc; two days
Protocol: Cell lines obtained from ATCC were cultured under standard tissue culture conditions. Each cell line was plated at ˜2×10^4 cells/well (in 96-well plates), and incubated overnight in F12/DMEM media supplemented with 10% FBS. […] Cell viability was determined using Promega CellTiter 96® AQeous Non-Radioactive Cell Proliferation Assay (Cat # G5430) essentially as described in the manufacturer's instructions to assay the amount of soluble formazan produced by cellular reduction of the MTS, which is a measure of the number of viable cells in the culture. Briefly, MTS/PMS regent was added to the wells and the absorbance at 490 nm (referenced at […]) was read in a Molecular Devices ThermoMax microplate reader.
Similar studies were performed over a range of anti-DR5 mAb concentrations from ˜10^−3 nM to ˜10^2 nM. The data for COLO205 cells is provided in FIG. 13, and are representative of cell lines sensitive to the antibodies of the invention.
The cytotoxicity of tetravalent DR5-Binding Molecules of the present invention was investigated. […] His-tagged TRAIL (R&D systems) was used as a positive control.
Similar studies were performed over a range of anti-DR5 mAb concentrations from ˜10^−3 nM to ˜10^2 nM.
His-tagged TRAIL (R&D systems) was used as a positive control.

HPAFII = experiment: […]-GLO cell viability assay with vorinostat; type: cell-based; settings: HPAFII (Pancreas); 1 μg/ml + 10 μM Vorinostat
[3] = Vorinostat 0 μM, % Medium Ctrl (10% FBS), 10 ng/ml tetravalent molecule or 1 μg/ml DR5 mAb
[4] = Vorinostat 0.1 μM, normalized to medium + vorinostat
[5] = Vorinostat 1 μM, normalized to medium + vorinostat

Molecule | synergy with vorinostat (COLO205 [1]) | Average % Ctrl (COLO205 [1]; [3]) | Net Gain (Average % Growth Inhibition) (COLO205 [1]; Vorinostat 0.1 μM) | Average % Ctrl (COLO205 [1]; [4]) | Net Gain (Average % Growth Inhibition) (COLO205 [1]; Vorinostat 1 μM) | Average % Ctrl (COLO205 [1]; [5]) | Net Gain (Average % Growth Inhibition) (SKBR3) | Net Gain (Average % Growth Inhibition) (Hs700T) | Net Gain (Average % Growth Inhibition) (22RV1) | % Inhibition (Average) (COLO205 [2]) | Net Gain (Average % Growth Inhibition) (HPAFII)
DR5 mAb 1: anti-human DR5 monoclonal antibody; VL SEQ ID NO:3, VH SEQ ID NO:8 (antibody, listed as Mus musculus, V domains shown, (1)..(121) Anti-DR5 Antibody mAb 1 Heavy Chain Variable Region; (1)..(111) Anti-DR5 Antibody mAb 1 Light Chain Variable Region) VH: EVKFLESGGGLVQPGGSLKLSCVASGFDFSRYWMSWVRQAPGKGLEWIGEINPDSNTINYTPSLKDKFIISRDNAKNTLYLQMTKVRSEDTALYYCTRRAYYGNPAWFAYWGQGTLVTVSS VL: DIVLTQSPASLAVSLGQRATISCRASKSVSSSGYSYMHWYQQKPGQPPKVLIFLSSNLDSGVPARFSGSGSGTDFTLNIHPVEDGDAATYYCQHSRDLPPTFGGGTKLEIK | did not synergize | 96.8% | 0% | 96.4% | 3% | 93.3% | 0.69% | 0.22% | 7.49% | 3.5% | 1.75%
DR5 mAb 2: murine anti-human DR5 monoclonal antibody; VL SEQ ID NO:13, VH SEQ ID NO:18 (antibody, listed as Mus musculus, V domains shown, (1)..(119) Anti-DR5 Antibody mAb 2 Heavy Chain Variable Region; (1)..(107) Anti-DR5 Antibody mAb 2 Light Chain Variable Region) VH: KVQLQQSGAELVKPGASVKLSCKASGYTFTEYILHWVKQKSGQGLEWIGWFYPGNNNIKYNEKFKDKATLTADKSSSTVYMELSRLTSEDSAVYFCARHEQGPGYFDYWGQGTTLTVSS VL: DIVMTQSHKFMSTSVGDRVSITCKASQDVNTAVAWYQQKPGQSPKLLIYWASTRHTGVPDRFTGSGSGTDYTLTIKSVQAEDLTLYYCQQHYITPWTFGGGTKLEIK | did not synergize | 96.4% | 0% | 96.5% | 1% | 95.5% | 0.69% | 0.22% | 7.49% | 3.61% | 2.86%
